Laboratory results taken from US20110263454A1, “Methods of Identifying Functional Characteristics of Promoters, Transcription Modifying Proteins and Transcription Modulating Agents” (Salk Institute for Biological Studies, priority 2008, published 2011).

How the values were obtained:
Assay type in all cases: cell-based, mouse
mDio1 promoter = assay: NHR-promoter luciferase screen, mDio1 promoter; conditions: for Luc. act., normalized to lacZ / Normalized Luc. act., normalized to control: Dio1, HR component without or with its ligand; for mDio1 promoter reporter activity: transcription factor +/- ligand, control = 1.00
Summary of the method: (§1)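 CV-1 cells were co-transfected with 50 ng NHR (homodimer or NHR/RXR heterodimer), 100 ng promoter-luciferase construct and 50 ng LacZ. Luciferase was normalized to LacZ and to a no-NHR/no-ligand control.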

SREBP1c promoter = assay: NHR-promoter luciferase screen, SREBP1c promoter; conditions: for Luc. act., normalized to lacZ / Normalized Luc. act., normalized to control: SREBP1c promoter, HR component without or with ligand; for mSREBP1-c promoter reporter activity: transcription factor +/- ligand, control = 1.00
Summary of the method: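 Values are luciferase activity normalised to LacZ (transfection control) and to a control lacking NHR or ligand. Read-out at 48 h in CV-1 cells carrying 100 ng promoter-reporter, 50 ng receptor (alone or with RXR) and 50 ng LacZ.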

mGhrelin promoter = assay: NHR-promoter luciferase screen, mGhrelin promoter; conditions: for Luc. act., normalized to lacZ / Normalized Luc. act., normalized to control: Table 8, mGhrelin; for Results of assays of transcription factor (+/- ligand) with mGhrelin: Table 6d, luciferase activity relative to control (control = 1.00)
Summary of the method: as §1

Row | Molecule | Luc. act., normalized to lacZ (mDio1 promoter) | Normalized Luc. act., normalized to control (mDio1 promoter) | mDio1 promoter reporter activity (mDio1 promoter) | Luc. act., normalized to lacZ (SREBP1c promoter) | Normalized Luc. act., normalized to control (SREBP1c promoter) | mSREBP1-c promoter reporter activity (SREBP1c promoter) | Luc. act., normalized to lacZ (mGhrelin promoter) | Normalized Luc. act., normalized to control (mGhrelin promoter) | Results of assays of transcription factor (+/- ligand) with mGhrelin (mGhrelin promoter)
1 | CTF2: COUP-TF2 (NR2F2), cDNA driver (protein, UniProt P24468 1-414, looked up) COUP transcription factor 2: MAMVVSTWRDPQDEVPGSQGSQASQAPPVPGPPPGAPHTPQTPGQGGPASTPAQTAAGGQGGPGGPGSDKQQQQQHIECVVCGDKSSGKHYGQFTCEGCKSFFKRSVRRNLSYTCRANRNCPIDQHHRNQCQYCRLKKCLKVGMRREAVQRGRMPPTQPTHGQFALTNGDPLNCHSYLSGYISLLLRAEPYPTSRFGSQCMQPNNIMGIENICELAARMLFSAVEWARNIPFFPDLQITDQVALLRLTWSELFVLNAAQCSMPLHVAPLLAAAGLHASPMSADRVVAFMDHIRIFQEQVEKLKALHVDSAEYSCLKAIVLFTSDACGLSDVAHVESLQEKSQCALEEYVRSQYPNQPTRFGKLLLRLPSLRTVSSSVIEQLFFVRLVGKTPIETLIRDMLLSGSSFNWPYMAIQ | 20.9 | 4.7 | 4.69 | 455.6 | 1.4 | 1.41 | 173.3 | 3.3 | 3.32
2 | NR4a2: NR4a2 (NR4A2; NURR1), nuclear hormone receptor cDNA driver (protein, UniProt P43354 1-598, looked up) Nuclear receptor subfamily 4 …: MPCVQAQYGSSPQGASPASQSYSYHSSGEYSSDFLTPEFVKFSMDLTNTEITATTSLPSFSTFMDNYSTGYDVKPPCLYQMPLSGQQSSIKVEDIQMHNYQQHSHLPPQSEEMMPHSGSVYYKPSSPPTPTTPGFQVQHSPMWDDPGSLHNFHQNYVATTHMIEQRKTPVSRLSLFSFKQSPPGTPVSSCQMRFDGPLHVPMNPEPAGSHHVVDGQTFAVPNPIRKPASMGFPGLQIGHASQLLDTQVPSPPSRGSPSNEGLCAVCGDNAACQHYGVRTCEGCKGFFKRTVQKNAKYVCLANKNCPVDKRRRNRCQYCRFQKCLAVGMVKEVVRTDSLKGRRGRLPSKPKSPQEPSPPSPPVSLISALVRAHVDSNPAMTSLDYSRFQANPDYQMSGDDTQHIQQFYDLLTGSMEIIRGWAEKIPGFADLPKADQDLLFESAFLELFVLRLAYRSNPVEGKLIFCNGVVLHRLQCVRGFGEWIDSIVEFSSNLQNMNIDISAFSCIAALAMVTERHGLKEPKRVEELQNKIVNCLKDHVTFNNGGLNRPNYLSKLLGKLPELRTLCTQGLQRIFYLKLEDLVPPPAIIDKLFLDTLPF | 6.3 | 1.4 | 1.41 | 456.2 | 1.4 | 1.42 | 31.5 | 0.6 | 0.60
3 | CTF3: COUP-TF3 (NR2F6), cDNA driver (protein, UniProt P10588 1-404, looked up) Nuclear receptor subfamily 2 …: MAMVTGGWGGPGGDTNGVDKAGGYPRAAEDDSASPPGAASDAEPGDEERPGLQVDCVVCGDKSSGKHYGVFTCEGCKSFFKRSIRRNLSYTCRSNRDCQIDQHHRNQCQYCRLKKCFRVGMRKEAVQRGRIPHSLPGAVAASSGSPPGSALAAVASGGDLFPGQPVSELIAQLLRAEPYPAAAGRFGAGGGAAGAVLGIDNVCELAARLLFSTVEWARHAPFFPELPVADQVALLRLSWSELFVLNAAQAALPLHTAPLLAAAGLHAAPMAAERAVAFMDQVRAFQEQVDKLGRLQVDSAEYGCLKAIALFTPDACGLSDPAHVESLQEKAQVALTEYVRAQYPSQPQRFGRLLLRLPALRAVPASLISQLFFMRLVGKTPIETLIRDMLLSGSTFNWPYGSGQ | 10.0 | 2.2 | 2.23 | 230.3 | 0.7 | 0.71 | 68.4 | 1.3 | 1.31
4 | PR: Progesterone Receptor (NR3C3), cDNA driver (protein, UniProt P06401 1-933, looked up) Progesterone receptor: MTELKAKGPRAPHVAGGPPSPEVGSPLLCRPAAGPFPGSQTSDTLPEVSAIPISLDGLLFPRPCQGQDPSDEKTQDQQSLSDVEGAYSRAEATRGAGGSSSSPPEKDSGLLDSVLDTLLAPSGPGQSQPSPPACEVTSSWCLFGPELPEDPPAAPATQRVLSPLMSRSGCKVGDSSGTAAAHKVLPRGLSPARQLLLPASESPHWSGAPVKPSPQAAAVEVEEEDGSESEESAGPLLKGKPRALGGAAAGGGAAAVPPGAAAGGVALVPKEDSRFSAPRVALVEQDAPMAPGRSPLATTVMDFIHVPILPLNHALLAARTRQLLEDESYDGGAGAASAFAPPRSSPCASSTPVAVGDFPDCAYPPDAEPKDDAYPLYSDFQPPALKIKEEEEGAEASARSPRSYLVAGANPAAFPDFPLGPPPPLPPRATPSRPGEAAVTAAPASASVSSASSSGSTLECILYKAEGAPPQQGPFAPPPCKAPGASGCLLPRDGLPSTSASAAAAGAAPALYPALGLNGLPQLGYQAAVLKEGLPQVYPPYLNYLRPDSEASQSPQYSFESLPQKICLICGDEASGCHYGVLTCGSCKVFFKRAMEGQHNYLCAGRNDCIVDKIRRKNCPACRLRKCCQAGMVLGGRKFKKFNKVRVVRALDAVALPQPVGVPNESQALSQRFTFSPGQDIQLIPPLINLLMSIEPDVIYAGHDNTKPDTSSSLLTSLNQLGERQLLSVVKWSKSLPGFRNLHIDDQITLIQYSWMSLMVFGLGWRSYKHVSGQMLYFAPDLILNEQRMKESSFYSLCLTMWQIPQEFVKLQVSQEEFLCMKVLLLLNTIPLEGLRSQTQFEEMRSSYIRELIKAIGLRQKGVVSSSQRFYQLTKLLDNLHDLVKQLHLYCLNTFIQSRALSVEFPEMMSEVIAAQLPKILAGMVKPLLFHKK | 7.8 | 1.8 | 1.75 | 466.4 | 1.4 | 1.45 | 53.6 | 1.0 | 1.03
5 | NR4a3: NR4a3 (NR4A3; NOR1), nuclear hormone receptor cDNA driver (protein, UniProt Q92570 1-626, looked up) Nuclear receptor subfamily 4 …: MPCVQAQYSPSPPGSSYAAQTYSSEYTTEIMNPDYTKLTMDLGSTEITATATTSLPSISTFVEGYSSNYELKPSCVYQMQRPLIKVEEGRAPSYHHHHHHHHHHHHHHQQQHQQPSIPPASSPEDEVLPSTSMYFKQSPPSTPTTPAFPPQAGALWDEALPSAPGCIAPGPLLDPPMKAVPTVAGARFPLFHFKPSPPHPPAPSPAGGHHLGYDPTAAAALSLPLGAAAAAGSQAAALESHPYGLPLAKRAAPLAFPPLGLTPSPTASSLLGESPSLPSPPSRSSSSGEGTCAVCGDNAACQHYGVRTCEGCKGFFKRTVQKNAKYVCLANKNCPVDKRRRNRCQYCRFQKCLSVGMVKEVVRTDSLKGRRGRLPSKPKSPLQQEPSQPSPPSPPICMMNALVRALTDSTPRDLDYSRYCPTDQAAAGTDAEHVQQFYNLLTASIDVSRSWAEKIPGFTDLPKEDQTLLIESAFLELFVLRLSIRSNTAEDKFVFCNGLVLHRLQCLRGFGEWLDSIKDFSLNLQSLNLDIQALACLSALSMITERHGLKEPKRVEELCNKITSSLKDHQSKGQALEPTESKVLGALVELRKICTLGLQRIFYLKLEDLVSPPSIIDKLFLDTLPF | 6.6 | 1.5 | 1.48 | 358.6 | 1.1 | 1.11 | 29.4 | 0.6 | 0.56
6 | hMR: Mineralocorticoid Receptor (NR3C2, MR), cDNA driver (protein, UniProt P08235 1-984, looked up) Mineralocorticoid receptor: METKGYHSLPEGLDMERRWGQVSQAVERSSLGPTERTDENNYMEIVNVSCVSGAIPNNSTQGSSKEKQELLPCLQQDNNRPGILTSDIKTELESKELSATVAESMGLYMDSVRDADYSYEQQNQQGSMSPAKIYQNVEQLVKFYKGNGHRPSTLSCVNTPLRSFMSDSGSSVNGGVMRAVVKSPIMCHEKSPSVCSPLNMTSSVCSPAGINSVSSTTASFGSFPVHSPITQGTPLTCSPNVENRGSRSHSPAHASNVGSPLSSPLSSMKSSISSPPSHCSVKSPVSSPNNVTLRSSVSSPANINNSRCSVSSPSNTNNRSTLSSPAASTVGSICSPVNNAFSYTASGTSAGSSTLRDVVPSPDTQEKGAQEVPFPKTEEVESAISNGVTGQLNIVQYIKPEPDGAFSSSCLGGNSKINSDSSFSVPIKQESTKHSCSGTSFKGNPTVNPFPFMDGSYFSFMDDKDYYSLSGILGPPVPGFDGNCEGSGFPVGIKQEPDDGSYYPEASIPSSAIVGVNSGGQSFHYRIGAQGTISLSRSARDQSFQHLSSFPPVNTLVESWKSHGDLSSRRSDGYPVLEYIPENVSSSTLRSVSTGSSRPSKICLVCGDEASGCHYGVVTCGSCKVFFKRAVEGQHNYLCAGRNDCIIDKIRRKNCPACRLQKCLQAGMNLGARKSKKLGKLKGIHEEQPQQQQPPPPPPPPQSPEEGTTYIAPAKEPSVNTALVPQLSTISRALTPSPVMVLENIEPEIVYAGYDSSKPDTAENLLSTLNRLAGKQMIQVVKWAKVLPGFKNLPLEDQITLIQYSWMCLSSFALSWRSYKHTNSQFLYFAPDLVFNEEKMHQSAMYELCQGMHQISLQFVRLQLTFEEYTIMKVLLLLSTIPKDGLKSQAAFEEMRTNYIKELRKMVTKCPNNSGQSWQRFYQLTKLLDSMHDLVSDLLEFCFYTFRESHALKVEFPAMLVEIISDQLPKVESGNAKPLYFHRK | 2.4 | 0.5 | 0.55 | 223.2 | 0.7 | 0.69 | 49.7 | 1.0 | 0.95
